Experimental data: US8455615B2, “Methods and compositions for prostate cancer immunotherapy” (Beth Israel Deaconess Medical Center, priority 2008, dated 2013)

Experiments:
[1] = molecular target: T1, HLA-A2.1 (Homo sapiens, UniProt P04439, D140Y/D185E/D98H/E176V/E277Q/G131W/G231S/I119V/I121R/I166T/I218V/L300P/L318F/N151K/N90K/P208A/P217A/Q86G/Q94H/R138H/R169H/T345S); assay: Peptide-HLA-A2.1 dissociation rate on T2 cells with Brefeldin A (SIM2 peptides); assay type: cell-based; conditions: 50 μg/ml peptide, loss of A2.1 expression over time
T1 construct: stabilize MHC class I molecules from the T2 cell line; endogenous in cells; host or cells: T2 cells
Method: T2 cells were incubated overnight with 50 μg/ml of each candidate peptide at 37° C. in serum-free Iscove's Modified Dulbecco's Medium (IMDM). Cells were then incubated with Brefeldin A (Sigma, St. Louis, Mo.) at 10 μg/ml for 1 hour, washed, and incubated at 37° C. for 0, 2, 4 or 6 hours in the presence of Brefeldin A (50 ng/ml). Cells were then stained with BB7.2 mAb. For each time point, peptide-induced HLA-A2.1 expression was calculated as the difference of the mean fluorescence of peptide-loaded T2 cells and mean fluorescence of negative peptide-loaded T2 cells. The rate of dissociation is reflected by the loss of A2.1 expression over time.

[2] = test system: transgenic HHD mice; assay: Immunization of HHD mice with SIM2 peptides, IFN-γ ELISPOT on splenocytes; assay type: in vivo, mouse; conditions: male HHD mice, s.c. peptide in IFA with HBVcore128-140 helper epitope, 10-12 days; P<0.01 for SIM2(87), P<0.001 for other epitopes
Method: These nine SIM2 peptides were then tested for their capacity to elicit in vivo CTL responses in transgenic HHD mice. Ten to 12-week old male HHD mice were injected subcutaneously at the basis of the tail with […] of each candidate peptide emulsified in 50 μl of Incomplete Freund's Adjuvant (IFA) and 50 μl PBS in the presence of 150 μg of the I-A^b restricted HBVcore128-140 T helper epitope ([…]; SEQ ID NO: 88). Ten to twelve days post-immunization, spleens were harvested and splenocytes tested for peptide-induced specific release of IFN-γ by ELISPOT. To perform the ELISPOT assays, 96-well Millipore IP plates were coated with 100 μl/well mouse IFN-γ specific capture mAb (AN18, Mabtech Inc., Mariemont, Ohio) at a concentration of 10 μg/ml in PBS overnight at 4° C. Wells were washed with PBS and saturated with RPMI/10% FCS for 1 hour at 37° C. A total of 2.5×10^5 splenocytes were seeded in each well in four replicates and 5×10^4 peptide-loaded (10 μg peptide/ml, for 2 hours at 37° C.) splenocytes pretreated with 50 μg/ml Mitomycin C for 1 hour were added to each well. Plates were incubated for 1-2 days at 37° C. in 5% CO2, washed 5 times with PBS, and then incubated with 1 μg/ml of biotinylated rat anti-mouse IFN-γ mAb (R4-6A2, Mabtech Inc.) for 24 hours at 4° C. or at room temperature for 2 hours. The wells were washed, and incubated with 100 μl of diluted alkaline phosphatase-conjugated streptavidin for 1 hour at room temperature. Spots were developed by adding […] substrates (5-bromo-4,3-indolyl phosphate and nitroblue tetrazolium) and counted using the ELRO4 AID ELISPOT Reader System (Autoimmun Diagnostika GmbH, Straf3berg, Germany).

[3] = molecular target: T1, HLA-A2.1; assay: MHC stabilization assay on T2 cells (SIM2 peptides); assay type: cell-based; conditions: 50 μg peptide/250×10^3 cells/ml overnight at 37° C., BB7.2 mAb, flow cytometry
Method: Epitope candidates were evaluated for binding to HLA-A2.1 using an MHC stabilization assay. The assay is based on the ability of suitable peptides to stabilize MHC class I molecules from the T2 cell line. T2 cells lack a functional transporter associated with antigen presentation (TAP) and as a result accumulate empty, unstable class I molecules on the cell surface. These molecules on the cell surface dissociate rapidly unless they are stabilized by the addition of an appropriate binding peptide. In this assay, the flu M1 HLA-A*0201-binding peptide was used as a reference.
Briefly, T2 cells were cultured for 6 hours in serum-free IMDM (ATCC) prior to the addition of candidate peptides at a concentration of 50 μg/250×10^3 cells/ml and incubated overnight at 37° C. Cells were washed, and surface HLA-A2.1 molecules were stained with FITC mouse anti-human HLA-A2 mAb (clone BB7.2, Mouse IgG2b κ, BD Pharmingen) for 1 hour at 4° C. Cells were then washed three times with PBS and analyzed by flow cytometry. A negative control peptide (NEG, see FIG. 6A) and the flu matrix peptide M1 binder peptide (M1, see FIG. 6A) served as controls. The relative binding affinity of a given peptide was calculated as MFI(peptide)/MFI(negative peptide). Only relative binding affinities of 1.5 or higher were considered for further testing.

Substance | peptide-HLA dissociation rate (weak or strong stabilizing epitope) [1] | peptide-specific IFN-γ release by splenocytes (ELISPOT), immunogenicity [2] | binding to / stabilization of HLA-A2.1 molecules [3]
TLDGFVFVV (listed as Homo sapiens) [SIM2(87)] | strong stabilizing | higher numbers of splenocytes to release IFN-γ | –
epitope 430: SIM2 peptide able to stabilize HLA-A2.1 molecules, weak stabilizing epitope; sequence not printed (LLYTPSYSL) | weak stabilizing | – | –
epitope 84: SIM2 peptide able to stabilize HLA-A2.1 molecules, weak stabilizing epitope; sequence not printed (LLQTLDGFV) | weak stabilizing | – | –
FLDSRVTEV (listed as Homo sapiens) [SIM2(244)] | strong stabilizing | higher numbers of splenocytes to release IFN-γ | –
SLDLKLIFL (listed as Homo sapiens) [SIM2(237)] | weak stabilizing | higher numbers of splenocytes to release IFN-γ | –
SIM2(25): SIM2 peptide that binds tightly to A2.1 but was not immunogenic; sequence not printed (KLLPLPSAI) | – | not immunogenic | bind tightly
KLIFLDSRV (listed as Homo sapiens) [SIM2(241)] | strong stabilizing | higher numbers of splenocytes to release IFN-γ | –
YQIVGLVAV (listed as Homo sapiens) [SIM2(205)] | strong stabilizing | higher numbers of splenocytes to release IFN-γ | –
SIM2(199): SIM2 peptide able to stabilize HLA-A2.1 molecules, not immunogenic; sequence not printed (SLYDSCYQI) | weak stabilizing | not immunogenic | bind tightly
